According to the supplement of paper PMC10065799, “High-throughput profiling of sequence recognition by tyrosine kinases and SH2 domains using bacterial peptide display” (eLife, 2023):

What follows are sequences tested on c-Src (assay: phosphorylation enrichment, bacterial display (enrichment ratio); higher = better substrate or ligand; peptides without Tyr show the background).
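Throughout, for SH2 binding enrichment of the phosphorylated peptide, bacterial display: peptide library displayed on the E. coli surface as eCPX fusions, selected cells deep-sequenced, score is each peptide's frequency after selection divided by its frequency in the input.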
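Throughout, for phosphorylation enrichment, bacterial display: 11-residue human phosphosite peptides and single-mutation variants displayed on the E. coli surface, counted by deep sequencing, each peptide's frequency after selection divided by its frequency in the unselected input library; frequency after pTyr selection over input frequency; kinase dosed for 20-30% of maximal phosphorylation in three min.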

Point of comparison: DLFRLYICVKE [ARID1B_Y1091_V1092I], phosphorylation enrichment 0.499. Against it:
- EVVGGYSVHNA [MLH1_Y183_R182G] — lower, 0.336
- ALHHPYGCDVE [ABL2_Y80_R78H] — higher, 0.669
- MSRDVYSIDYY [NTRK2_Y702_T704I] — higher, 6.79
- KSDVMYTDWKK [ORM1_Y175_V174M] — higher, 0.616
- PRLLRYLQLDF [ASB10_Y457] — higher, 0.616
- QRALLYEDALF [UNC13D_Y56_YF] — higher, 1.5
- IKKLIYVYLVI [JAGN1_Y42_H44Y] — lower, 0.475
- SEHLTYLEFKS [RASGRP1_Y215] — higher, 5.56
- SVCPDYDLCSV [SQSTM1_Y148] — higher, 0.87
- ITVPAYFNDLQ [HSPA9_Y196_S200L] — lower, 0.468
- IAKNPYDPPGR — lower, 0.38
- KPEKTYGLRKE [CEP43_Y267] — lower, 0.43
- ASMAKYFASGI [ACADSB_Y372_E376G_YF] — lower, 0.386
- QGCGIYKDYYR [PLA2G2D_Y82_S80G] — higher, 6.8
- APQFTYAQGGQ [FLNA_Y1763_YF] — higher, 0.538
- RRSQSYIPTSG [PLEKHA2_Y185] — higher, 0.682
- SAEEDYKADAK [KCNT1_Y876_M877K] — higher, 0.513
- FSQNIYIQNRN [PKP2_Y631_YF] — lower, 0.45
- TRFDEYLEVTK [MAP1A_Y2217_H2214Y_YF] — lower, 0.444
- YEREQYADRAR [RBM4_Y355] — lower, 0.338
- LNWIYYKDQTG [RS1_Y166] — higher, 1.06
- YSTDCYRVGGH [NTRK2_Y707_Y706C] — lower, 0.415
- EAESWYQTKFE [KRT75_Y342_YF] — higher, 0.583
- NTGDYYDLYGG [PTPN11_Y63] — higher, 5
- VVFIKYLPEWT [PSEN1_Y240_L235V] — lower, 0.414
- GPGGDYAAMGA [ERBB3_Y1276] — lower, 0.494
- KQLFAYKMLMA [TMC2_Y209_YF] — lower, 0.439
- HDRNTYEKFLE [TF_Y666_G671E_YF] — higher, 0.818
- LDFNEYFRDLN [HPRT1_Y198_YF] — lower, 0.473
- PEAALYGRFTI [FYN_Y440] — higher, 6.87
- VNTTLYEKFTF [TEK_Y1108_YF] — higher, 2.89
- DKPENYRRLDI [VHL_Y175_V170D] — lower, 0.418

Each sequence was assayed against Grb2 SH2 (UniProt P62993) (assay: SH2 binding enrichment of the phosphorylated peptide, bacterial display (enrichment ratio); higher = better substrate or ligand; peptides without Tyr show the background).
Grb2 SH2, sequence (P62993 whole entry, looked up): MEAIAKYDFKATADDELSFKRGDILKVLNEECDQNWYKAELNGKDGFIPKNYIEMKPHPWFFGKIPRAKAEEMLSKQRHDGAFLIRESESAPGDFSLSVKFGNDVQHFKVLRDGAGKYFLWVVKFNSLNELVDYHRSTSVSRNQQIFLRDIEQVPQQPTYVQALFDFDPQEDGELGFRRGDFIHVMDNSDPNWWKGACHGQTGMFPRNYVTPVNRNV

Point of comparison: YSTDCYRVGGH [NTRK2_Y707_Y706C], SH2 binding enrichment 0.891. Against it:
- EVVGGYSVHNA [MLH1_Y183_R182G] — higher, 0.951
- DLFRLYICVKE [ARID1B_Y1091_V1092I] — lower, 0.744
- ALHHPYGCDVE [ABL2_Y80_R78H] — higher, 1.03
- MSRDVYSIDYY [NTRK2_Y702_T704I] — higher, 0.918
- KSDVMYTDWKK [ORM1_Y175_V174M] — lower, 0.771
- PRLLRYLQLDF [ASB10_Y457] — higher, 1.27
- QRALLYEDALF [UNC13D_Y56_YF] — lower, 0.828
- IKKLIYVYLVI [JAGN1_Y42_H44Y] — higher, 1.4
- SEHLTYLEFKS [RASGRP1_Y215] — lower, 0.716
- SVCPDYDLCSV [SQSTM1_Y148] — higher, 1.29
- ITVPAYFNDLQ [HSPA9_Y196_S200L] — higher, 1.15
- IAKNPYDPPGR — lower, 0.765
- KPEKTYGLRKE [CEP43_Y267] — higher, 1.1
- ASMAKYFASGI [ACADSB_Y372_E376G_YF] — higher, 1.01
- QGCGIYKDYYR [PLA2G2D_Y82_S80G] — higher, 0.956
- APQFTYAQGGQ [FLNA_Y1763_YF] — lower, 0.705
- RRSQSYIPTSG [PLEKHA2_Y185] — higher, 0.941
- SAEEDYKADAK [KCNT1_Y876_M877K] — lower, 0.874
- FSQNIYIQNRN [PKP2_Y631_YF] — higher, 0.964
- TRFDEYLEVTK [MAP1A_Y2217_H2214Y_YF] — lower, 0.814
- YEREQYADRAR [RBM4_Y355] — lower, 0.881
- LNWIYYKDQTG [RS1_Y166] — higher, 1.38
- EAESWYQTKFE [KRT75_Y342_YF] — lower, 0.794
- NTGDYYDLYGG [PTPN11_Y63] — higher, 1.02
- VVFIKYLPEWT [PSEN1_Y240_L235V] — higher, 1.64
- GPGGDYAAMGA [ERBB3_Y1276] — lower, 0.771
- KQLFAYKMLMA [TMC2_Y209_YF] — higher, 1.25
- HDRNTYEKFLE [TF_Y666_G671E_YF] — higher, 0.972
- LDFNEYFRDLN [HPRT1_Y198_YF] — higher, 1.01
- PEAALYGRFTI [FYN_Y440] — lower, 0.694
- VNTTLYEKFTF [TEK_Y1108_YF] — higher, 0.95
- DKPENYRRLDI [VHL_Y175_V170D] — lower, 0.68

Each sequence was assayed against SHP2-C SH2 in the same assay as above.

Point of comparison: SEHLTYLEFKS [RASGRP1_Y215], SH2 binding enrichment 0.52. Against it:
- EVVGGYSVHNA [MLH1_Y183_R182G] — higher, 0.537
- DLFRLYICVKE [ARID1B_Y1091_V1092I] — higher, 0.521
- ALHHPYGCDVE [ABL2_Y80_R78H] — higher, 0.771
- MSRDVYSIDYY [NTRK2_Y702_T704I] — higher, 0.804
- KSDVMYTDWKK [ORM1_Y175_V174M] — higher, 0.626
- PRLLRYLQLDF [ASB10_Y457] — higher, 1.6
- QRALLYEDALF [UNC13D_Y56_YF] — higher, 0.573
- IKKLIYVYLVI [JAGN1_Y42_H44Y] — higher, 1.06
- SVCPDYDLCSV [SQSTM1_Y148] — higher, 1.07
- ITVPAYFNDLQ [HSPA9_Y196_S200L] — higher, 0.722
- IAKNPYDPPGR — lower, 0.482
- KPEKTYGLRKE [CEP43_Y267] — higher, 0.999
- ASMAKYFASGI [ACADSB_Y372_E376G_YF] — higher, 0.86
- QGCGIYKDYYR [PLA2G2D_Y82_S80G] — higher, 0.931
- APQFTYAQGGQ [FLNA_Y1763_YF] — higher, 0.611
- RRSQSYIPTSG [PLEKHA2_Y185] — higher, 0.85
- SAEEDYKADAK [KCNT1_Y876_M877K] — higher, 0.618
- FSQNIYIQNRN [PKP2_Y631_YF] — higher, 0.843
- TRFDEYLEVTK [MAP1A_Y2217_H2214Y_YF] — higher, 0.78
- YEREQYADRAR [RBM4_Y355] — higher, 0.727
- LNWIYYKDQTG [RS1_Y166] — higher, 1.07
- YSTDCYRVGGH [NTRK2_Y707_Y706C] — higher, 0.735
- EAESWYQTKFE [KRT75_Y342_YF] — lower, 0.434
- NTGDYYDLYGG [PTPN11_Y63] — higher, 0.939
- VVFIKYLPEWT [PSEN1_Y240_L235V] — higher, 1.64
- GPGGDYAAMGA [ERBB3_Y1276] — higher, 0.863
- KQLFAYKMLMA [TMC2_Y209_YF] — higher, 1.07
- HDRNTYEKFLE [TF_Y666_G671E_YF] — higher, 0.639
- LDFNEYFRDLN [HPRT1_Y198_YF] — higher, 0.604
- PEAALYGRFTI [FYN_Y440] — higher, 0.757
- VNTTLYEKFTF [TEK_Y1108_YF] — higher, 0.927
- DKPENYRRLDI [VHL_Y175_V170D] — higher, 0.637

These sequences were tested against c-Src SH2 in the same assay as above.

Point of comparison: DKPENYRRLDI [VHL_Y175_V170D], SH2 binding enrichment 0.472. Against it:
- EVVGGYSVHNA [MLH1_Y183_R182G] — lower, 0.437
- DLFRLYICVKE [ARID1B_Y1091_V1092I] — lower, 0.384
- ALHHPYGCDVE [ABL2_Y80_R78H] — higher, 0.773
- MSRDVYSIDYY [NTRK2_Y702_T704I] — higher, 1.34
- KSDVMYTDWKK [ORM1_Y175_V174M] — lower, 0.47
- PRLLRYLQLDF [ASB10_Y457] — higher, 1.11
- QRALLYEDALF [UNC13D_Y56_YF] — higher, 0.593
- IKKLIYVYLVI [JAGN1_Y42_H44Y] — higher, 0.612
- SEHLTYLEFKS [RASGRP1_Y215] — lower, 0.409
- SVCPDYDLCSV [SQSTM1_Y148] — higher, 1.13
- ITVPAYFNDLQ [HSPA9_Y196_S200L] — higher, 0.583
- IAKNPYDPPGR — higher, 0.543
- KPEKTYGLRKE [CEP43_Y267] — higher, 0.823
- ASMAKYFASGI [ACADSB_Y372_E376G_YF] — lower, 0.445
- QGCGIYKDYYR [PLA2G2D_Y82_S80G] — higher, 0.497
- APQFTYAQGGQ [FLNA_Y1763_YF] — higher, 0.546
- RRSQSYIPTSG [PLEKHA2_Y185] — higher, 0.529
- SAEEDYKADAK [KCNT1_Y876_M877K] — higher, 0.477
- FSQNIYIQNRN [PKP2_Y631_YF] — higher, 0.864
- TRFDEYLEVTK [MAP1A_Y2217_H2214Y_YF] — higher, 0.528
- YEREQYADRAR [RBM4_Y355] — higher, 0.591
- LNWIYYKDQTG [RS1_Y166] — higher, 1.18
- YSTDCYRVGGH [NTRK2_Y707_Y706C] — higher, 0.896
- EAESWYQTKFE [KRT75_Y342_YF] — higher, 0.699
- NTGDYYDLYGG [PTPN11_Y63] — higher, 0.687
- VVFIKYLPEWT [PSEN1_Y240_L235V] — higher, 1.04
- GPGGDYAAMGA [ERBB3_Y1276] — higher, 1.09
- KQLFAYKMLMA [TMC2_Y209_YF] — higher, 1.01
- HDRNTYEKFLE [TF_Y666_G671E_YF] — higher, 3.06
- LDFNEYFRDLN [HPRT1_Y198_YF] — higher, 0.552
- PEAALYGRFTI [FYN_Y440] — lower, 0.418
- VNTTLYEKFTF [TEK_Y1108_YF] — higher, 0.882
